From paper PMC11587947 come the findings set out here.

Common to all, as to test: turbidimetry of self-assembly
Test [1] addresses HIV-1 capsid protein CA mutant E45A (HIV-1 (strain BH10)).
Test [2] addresses HIV-1 capsid protein CA mutant E180A (HIV-1 (strain BH10)).
The target of test [3] is HIV-1 capsid protein CA mutant P38A (HIV-1 (strain BH10)).
In test [4] the target is HIV-1 capsid protein CA mutant Q63A (HIV-1 (strain BH10)).
Test [5] deals with HIV-1 capsid protein CA mutant Q192A (HIV-1 (strain BH10)).
Test [6] addresses HIV-1 capsid protein CA mutant S178A (HIV-1 (strain BH10)).
Test [7] addresses HIV-1 capsid protein CA mutant V165A (HIV-1 (strain BH10)).

For the substance “HIV-1 capsid protein CA mutant E45A (natural protein)”, the growth rate constant kg relative to wt in test [1] is 11.5 fold of wt.

“HIV-1 capsid protein CA mutant E180A (natural protein)”: the growth rate constant kg relative to wt in test [2] was 0.8 fold of wt.

Regarding “HIV-1 capsid protein CA mutant P38A (natural protein)”, the growth rate constant kg relative to wt in test [3] is 18.5 fold of wt.

Regarding “HIV-1 capsid protein CA mutant Q63A (natural protein)”, the growth rate constant kg relative to wt in test [4] is 0.6 fold of wt.

Consider “HIV-1 capsid protein CA mutant Q192A (natural protein)”, for which, in test [5], the growth rate constant kg relative to wt was 2.7 fold of wt.

Regarding “HIV-1 capsid protein CA mutant S178A (natural protein)”, the growth rate constant kg relative to wt in test [6] was 5.6 fold of wt.

In the case of “HIV-1 capsid protein CA mutant V165A (natural protein)”, in test [7], the growth rate constant kg relative to wt is 28 fold of wt and the nucleation rate constant kn relative to wt is > 100 fold of wt.
